In the DeepSol protein solubility set:

Experiment: soluble on expression in E. coli; label from the status in PepcDB or PDB records
In the case of “MRALSSLLLTLLLAGPAFAEPSAELQEPLAGWRYSGLLDRTEQDRVAYPTPPIDRGIQRNRTLIEGQLKAIGHLRQPHSLSVNGNPLNLYTDEQGRFARPYAFGAGSNSVEVRSSEGKPLKRVQFYEANLNKTPPRIRVVLGWDDPKAELDMHIITPDGQHAFFGHPGLTNGGGLDPDGVDGPGPEMFTMTAPLRGTYLIYVNYWGNFGSGGYNFDEGSNQNEVITSQINLILNENTVDEKRETFIVPMRAIGDLLLVKSFNYLEHHHHHH”, the “soluble on expression in E. coli” value is reported as “soluble”. For “MISDIRKDAEVRMDKCVEAFKTQISKIRTGRASPSLLDGIVVEYYGTPTPLRQLASVTVEDSRTLKINVFDRSMSPAVEKAIMASDLGLNPNSAGSDIRVPLPPLTEERRKDLTKIVRGEAEQARVAVRNVRRDANDKVKALLKDKEISEDDDRRSQDDVQKLTDAAIKKIEAALADKEAELMQF”, the “soluble on expression in E. coli” value was “soluble”. With “MGILDHPSSSSGIQSGGGTFGIDWAKWFPPVTSRSFLSHYLPASGALSHTLYTVHLFSPNIISSLFPTGDLAVSNTILFNANVGLGFYVYFRRHLHRVNPWERVEFSVLSSTLFNFGSLLAAVLIKALIPAKSPTWLKSLTATVLSGYLLSRAAKYMGILDHRSSRGSVSPARSVLSRRQTASRSSHAAEVTPPPASYAPETPRSVASTSYYSPSELHLDTTSSVQLETPPQSHESGSFMPMTPSATEHSSSEFGQDLEDAGDRHENYRYLHSYALNNLNHSRPKKETILRRTTMNQKNQLATPQKQLRRSSETMAPMCFVTPEPSWKELDVGVYTPPPSRMDFTPQASKKLTKSSKSVKIIQKKSRRIPNEKDDFDRFLDAVQWHAPLILVPVAFGCWITGSVPILSPTLRFIFA” the “soluble on expression in E. coli” value was “not soluble”. In the case of “MGSDKIHHHHHHENLYFQGLLPKYNILTEDQVQKIHENTMKILEEIGIEFEYEPALEVFRREGQKVEGKRVYLTREFVESKLKSAPAEFTLHARNPENNVVIGGDNIVFMPGYGAPFIYELDGSRRKTTLQDYENFAKLAGASKNMHLSGGTMAEPQDIPDGVRHLQMLYSSIKNSDKCFMGSAEGKERAEDSVEIAAILFGGKDVIKEKPVLVSLINSLTPLKYDERMLGALMAYAEAGQAVIIASLVMAGSTGPASLAGTLSLQNAEVLAGISLAQSINPGTPVIYGSTSALSDMRSGSLSIGSPECALFISASAQLARFYGVPSRSGGGLNDSKTVDAQAGYESMMTLMAANLTGVNFVLHTAGILQYFMAMSYEKFIMDDEIAGMLLHYMKGYTFDEDGMAFDVIEKVGPGGHFLTQKHTRKNHKREFYTPTLSDRSAYDTWAKEKLETKQRAHARWQQILANYVPPALDPEIDAKLQAFIAQRGKEVGEE”, the “soluble on expression in E. coli” value is reported as “soluble”. For “GIVATRYRDFSPLLEALTQLLFYVTPIVWTTETLYSQGGAVSERAKLAMLNPLYHYMEVIRAPLIGAPIHP”, the “soluble on expression in E. coli” value was “not soluble”. For “MASISSLGVGSGLDLSSILDSLTAAQKATLTPISNQQSSFTAKLSAYGTLKSALTTFQTANTALSKADLFSATSTTSSTTAFSATTAGNAIAGKYTISVTHLAQAQTLTTRTTRDDTKTAIATSDSKLTIQQGGDKDPISIDISAANSSLSGIRDAINNAKAGVSASIINVGNGEYRLSVTSNDTGLDNAMTLSVSGDDALQSFMGYDASASSNGMEVSVAAQNAQLTVNNVAIENSSNTISDALENITLNLNDVTTGNQTLTITQDTSKAQTAIKDWVNAYNSLIDTFSSLTKYTAVDAGADSQNSSNGALLGDSTLRTIQTQLKSMLSNTVSSSNYKTLAQIGITTDPSDGKLELDADKLTAALKKDASGVGALIVGDGKKTGITTTIGSNLTSWLSTTGIIKAATDGVSKTLNKLTKDYNAASDRIDAQVARYKEQFTQLDVLMTSLNSTSSYLTQQFENNSNSK”, the “soluble on expression in E. coli” value was “not soluble”. For “MGSDKIHHHHHHMTVHHHHHTHHVSLHKIKKLFSKHSSHGHKLTRDEARSALHDIEHLAKELHFQKVFDHHAHDGHISLKGFLSFISPHHGHHTHHAHGAHPGHHEVHHHHHHVKAQDSSSSSSSSSSSSSSSSSSSSSSSSSSSESEDEKHHHKKHAKKHLKKHHKKAESSSSSSSSSSSSSSSSSSSSSSESEDEKHHHKKHAKKHLKKHHKKAESSSSSSSSSSSSSSSSSSSSSSSESEDEKHHHKKHAVKKHHKKAESSSSSSSSSSSSSSSSSSEDEKHHHKKHAAKKHVKHHKKAASSSSSSSSSSSSSSSSSSSSSSESEDEKKKKKVHHKKSHGKKHHKKAASSSSSSSSSSSSSSSSSSSESEDEKKHAPAHHEHHEHKDGAHHEHKEGEHHEHAAHHDEHGVHHRHHGEHHGTHHSPAHHGEHGTHHGHHGEHHHAPAHHGHHESHGHGHHSPAHHGHHGEHHHAPAHHGHHGEHHHAPAHHGHHGEHGTHHGHHGSHHSPAHHGHHGEHHHAPAHHGHHGEHGTHHGHHGEHHHAPAHHGHHGEHGTHHGHHGSHHSPAHHGHHGEHHHAPAHHGHHGHHGSHGVHHGHHESHGHGHHAPAHHGHHGEHGVHHGHHGAGYGAHHGHHGAHHHHAPHHEHHEHHGDHHHGSHGVHHGHHGTHHSLAHHGHHGGHGTHHGAHHSPAHHGHHGAHHEHGAHHGAHHGHHDDKENHHHHGHHSKHSKKQHTKKSHKKSH”, the “soluble on expression in E. coli” value was “not soluble”. In the case of “MRDMIYGEMALVSHTHPAAVGSTTCYEKNQQKQQQVQQIPTQPQVAHVSSNAILAAAQPFYPPPVQDSQPDRPIGYGAFGVVWSVTDPRSGKRVALKKMPNVFQNLASCKRVFREIKMLSSFRHDNVLSLLDILQPANPSFFQELYVLTELMQSDLHKIIVSPQALTPDHVKVFVYQILRGLKYLHTANILHRDIKPGNLLVNSNCILKICDFGLARTWDQRDRLNMTHEVVTQYYRAPELLMGARRYTGAVDIWSVGCIFAELLQRKILFQAAGPIEQLQMIIDLLGTPSQEAMKYACEGAKNHVLRAGLRAPDTQRLYKIASPDDKNHEAVDLLQKLLHFDPDKRISVEEALQHRYLEEGRLRFHSCMCSCCYTKPNMPSRLFAQDLDPRHESPFDPKWEKDMSRLSMFELREKMYQFVMDRPALYGVALCINPQSAAYKNFASSSVAQASELPPSPQAW”, the “soluble on expression in E. coli” value is reported as “not soluble”. For “MGSDKIHHHHHHNSALEWLQRAASAAKEQNYSGIYVYHHGDEVEVLRVLHRNDGRREQEKTEVMDGTQRHFLRVNSDVYCHLADGKQVRLERNASRRFFPAFLPARAAGLAELYEVKLGGVERVAGRPCQVVMLEPRDGYRHAFQLWLDSRTGLPLKSRIVNSDGEVVSMFVFSEVQIGRPPDASLFRNELAGKQVQQVSLGQRIDLPWSVTPPPGFERVQEAVRTLPGRNTPVTHLVFSDGLSVLSMFIEPADPGVPSLQGLSAEGAIGVYARALDGHTITTVGEVPNLALIETGNSVRRK”, the “soluble on expression in E. coli” value was “not soluble”. In the case of “MSRRVATITLNPAYDLVGFCPEIERGEVNLVKTTGLHAAGKGINVAKVLKDLGIDVTVGGFLGKDNQDGFQQLFSELGIANRFQVVQGRTRINVKLTEKDGEVTDFNFSGFDVTPADWERFVNDSLSWLGQFDMVCVSGSLPAGVSPEAFTDWMTRLRSQCPCIIFDSSREALVAGLKAAPWLVKPNRRELEIWAGRKLPEMKDVIDAAHALREQGIAHVVISLGAEGALWVNASGEWIAKPPAVDVVSTVGAGDSMVGGLIYGLLMRESSEHTLRLATAVAALAVSQSNVGITDRPQLAAMMARVDLQPFN”, the “soluble on expression in E. coli” value is reported as “not soluble”. For “MSLDIIIVGSGAGGLTTASNIKKHDKNAKVTVITSDNYIAYSPCAIPYVIGEEIADFESIIMHTPEDYKAKGIDVIVEAEVLDVVSDENKIIYKKDATETELKYDNLVLATGGTPFVPPIEGVTLGGVFKVRTIEDGRKITEWAKDTKNAVVAGAGAIGIEIAFGLKELGLDVTVVEMVPQVFPRALDPDMAETVQKYLEEQGIKVILEKPVGKIIGNDKVESVLVGEETIPAEMVIMSTGVRSNIELAKRAGCEIGRWAVLTNEKMQTSIPNIYAVGDCVEVIDAITMQNTLSPFGTTAVRQGKVAAKTIANIEAEIKPVLNSMVSKIGKLEIGGTGMTETAAKMNGIEIVLGYSKALTRARYYPGGKPIYIKMVADKNTKKIIGCQIISEERVAERVDAMSVAIFNGMTVEELANQEFCYAPPVSMVIDPIVFAAEDTLDKEGHHHHHH”, the “soluble on expression in E. coli” value was “soluble”. For “MLKGQRTWVFANKPAIIATAAVGGPFEANGRLAEDFDLLHEDLWLGEESYEKAHRVLMEEAAFQAMEKAGLEKEKVQFLIAGDLINQMTPTSFAARTLGMPYLGVFGACSTSMEGLALSAFITNYGGADYILTGASSHNAAVEKQFRYPTEYGGQKPPTAQWTVTGAGVAIVSPKGDGPRVTAATIGRVVDMGLADPFNMGGAMAPAAVDTIEAHLRDMQIDASYYDLIVTGDLGRIGRQVSLDLLRQHGIDIDEECYQDCGLLIYRDGQPVLSGASGAACSAVVVYGHLIKRMRRGELKRILAVATGALLSPLSFQQNETIPCIAHAVAIEYGGEA”, the “soluble on expression in E. coli” value was “not soluble”.
